Patent US20250368754A1 (KANAPH THERAPEUTICS, published 2025)

How the values were obtained:
[1] = target: T1, human FAP on HEK293-hFAP cells (human, UniProt Q12884 1-760); assay: flow cytometry on HEK293-hFAP cells, 1 ug protein per 1x10^5 cells, anti-human IgG detection (axis TMEkine-PE)
T1 construct: whole, on cells; also called human FAP-expressing cell line
T1 sequence (looked up): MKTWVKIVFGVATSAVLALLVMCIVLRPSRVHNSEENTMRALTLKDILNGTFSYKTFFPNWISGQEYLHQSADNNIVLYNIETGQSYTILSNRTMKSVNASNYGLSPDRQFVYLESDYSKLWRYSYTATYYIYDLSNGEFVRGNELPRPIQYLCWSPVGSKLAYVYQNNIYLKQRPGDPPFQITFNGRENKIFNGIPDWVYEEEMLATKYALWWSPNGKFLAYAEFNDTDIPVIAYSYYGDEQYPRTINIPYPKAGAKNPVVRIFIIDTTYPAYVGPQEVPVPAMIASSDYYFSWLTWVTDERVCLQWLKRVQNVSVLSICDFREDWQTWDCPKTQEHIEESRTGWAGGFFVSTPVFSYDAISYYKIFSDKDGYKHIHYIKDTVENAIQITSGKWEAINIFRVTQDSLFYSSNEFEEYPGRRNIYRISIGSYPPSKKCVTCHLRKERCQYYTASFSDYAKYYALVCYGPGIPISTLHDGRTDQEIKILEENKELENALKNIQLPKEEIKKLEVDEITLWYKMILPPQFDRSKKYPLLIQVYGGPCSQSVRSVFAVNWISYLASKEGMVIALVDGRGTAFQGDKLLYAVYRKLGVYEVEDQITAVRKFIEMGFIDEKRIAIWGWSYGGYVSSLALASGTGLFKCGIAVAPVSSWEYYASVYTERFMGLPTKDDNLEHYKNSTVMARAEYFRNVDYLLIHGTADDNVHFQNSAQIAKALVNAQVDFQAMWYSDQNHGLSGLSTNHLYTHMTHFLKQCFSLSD
Experimental: (§1) Specifically, the cell line was prepared by suspending in a FACS buffer solution at 1×10⁵ cells/100 μL, and treated with 1 μg each of T3.10, T3.01, T3.05, T3.06, T3.14, and T3.18. The cells were washed twice with a FACS buffer solution. The cells were stained with an anti-human IgG antibody (Biolegend). The negative control sample was stained only with an anti-human IgG antibody (Biolegend). The expression ratio of the stained cells was measured using BD LSR and analyzed using FlowJo software.

human LTβR on A375 cells [2] = target: T2, human LTβR on A375 cells (human, UniProt P36941 31-435); assay: flow cytometry on A375 cells, serial dilution from 500 nM, anti-human IgG detection
T2 construct: whole, on cells; Endogenous receptor of a human cell line; also called LTβR expressing A375 cells; LTβR expressing cell line
Experimental: Specifically, the A375 cell line was prepared by suspending in a FACS buffer solution at 1×10⁵ cells/100 μL, and treated with 100 μL each of T3.01, T3.07, T3.04, and T3.18 prepared by suspending at 500 nM and diluting by serial dilution. The cells were washed twice with a FACS buffer solution. The cells were stained with an anti-human IgG antibody (Biolegend). The expression ratio of the stained cells was measured using BD LSR and analyzed using FlowJo software.

[3] = target: T3, recombinant human herpes virus entry mediator (HVEM) (human, UniProt Q92956 39-202); assay: SPR, human HVEM immobilised on the chip (title: PRO121; 6ug/ml human HVEM pH5.5), T3.18 as analyte 0.78125-100 nM
T3 construct: neither construct is described; also called human HVEM; recombinant human HVEM protein (R&D systems)
T3 sequence (looked up): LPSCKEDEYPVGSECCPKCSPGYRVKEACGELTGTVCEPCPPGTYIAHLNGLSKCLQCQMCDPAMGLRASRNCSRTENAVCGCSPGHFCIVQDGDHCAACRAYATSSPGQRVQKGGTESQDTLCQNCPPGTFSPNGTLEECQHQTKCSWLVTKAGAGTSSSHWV
Experimental: (§2) Specifically, the surface of the CM5 chip was activated with a 1:1 mixture of […], and 5 to 6 μg/mL of human HVEM was immobilized for 60 seconds at a rate of 10 μL/min. The remaining active ester groups were blocked with 1 M ethanolamine. T3.01, T3.07, T3.09, T3.14, and T3.18 were each diluted to 100 nM in 1×HBS-EP+buffer solution and diluted by serial dilution. The diluted fusion proteins were reacted at a rate of 30 μL/min. The association and dissociation times were 180 seconds and 400 seconds, respectively. After the dissociation step, stabilization was performed for 60 seconds, and then the regeneration step was performed for 30 seconds with a 10 mM glycine pH 1.5 solution at a rate of 30 μL/min.

[4] = target: T1, human FAP on HEK293-hFAP cells; assay: flow cytometry on HEK293-hFAP cells, 1 µg protein, anti-human IgG detection
Experimental: as §1

human LTβR on A375 cells [5] = target: T2, human LTβR on A375 cells; assay: cell-based or functional assay
[6] = target: T4, recombinant human lymphotoxin beta receptor (LTβR) (human, UniProt P36941 28-227, limits assumed); assay: SPR, human LTβR immobilised on CM5, fusion protein as analyte, 1:1 binding model
T4 construct: neither construct is described; also called human LTβR; recombinant human LTβR protein
Experimental: as §2, with “5” for “5 to 6”, “LTβR” for “HVEM”, “T3.01, T3.07, T3.09, T3.14, and T3.18 were each diluted to 100 nM in 1×HBS-EP+buffer solution and diluted by serial dilution.” left out

human DcR3 = target: T5, human DcR3 (human, UniProt O95407 30-300); assay: SPR, human DcR3 immobilised on CM5, fusion protein as analyte, 1:1 binding model
T5 construct: also called LIGHT receptor DcR3
T5 sequence (looked up): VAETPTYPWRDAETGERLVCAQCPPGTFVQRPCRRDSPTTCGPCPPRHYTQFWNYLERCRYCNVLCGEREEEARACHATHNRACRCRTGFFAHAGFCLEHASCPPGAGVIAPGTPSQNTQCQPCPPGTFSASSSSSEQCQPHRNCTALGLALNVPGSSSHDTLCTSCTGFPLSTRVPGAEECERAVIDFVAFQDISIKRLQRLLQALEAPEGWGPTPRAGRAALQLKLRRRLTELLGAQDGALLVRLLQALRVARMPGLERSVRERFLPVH
Experimental: as §2, with “DcR3” for “HVEM”, “50 nM or 200” for “100”

T4 sequence (P36941 28-227 limits assumed): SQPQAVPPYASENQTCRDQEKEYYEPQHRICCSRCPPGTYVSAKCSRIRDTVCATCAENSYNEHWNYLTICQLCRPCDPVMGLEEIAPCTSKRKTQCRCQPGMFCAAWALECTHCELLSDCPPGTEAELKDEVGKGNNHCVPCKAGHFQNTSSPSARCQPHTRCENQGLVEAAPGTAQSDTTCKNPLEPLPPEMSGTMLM
T2 sequence (P36941 31-435): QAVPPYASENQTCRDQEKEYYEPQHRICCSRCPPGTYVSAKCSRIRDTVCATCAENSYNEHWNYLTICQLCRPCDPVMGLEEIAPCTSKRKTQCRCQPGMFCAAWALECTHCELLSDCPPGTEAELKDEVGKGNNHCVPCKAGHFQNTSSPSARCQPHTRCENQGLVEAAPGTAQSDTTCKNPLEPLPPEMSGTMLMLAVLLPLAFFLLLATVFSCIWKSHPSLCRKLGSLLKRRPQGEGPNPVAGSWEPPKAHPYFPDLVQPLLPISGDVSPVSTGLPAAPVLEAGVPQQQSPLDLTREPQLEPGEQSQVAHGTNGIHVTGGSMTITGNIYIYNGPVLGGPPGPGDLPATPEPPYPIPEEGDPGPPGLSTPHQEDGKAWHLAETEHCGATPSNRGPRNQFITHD

B1: T3.18 (anti-hu FAP/hu scLIGHT(GGSG)-LTb2, hu IgG1 DANG) (bispecific antibody)
heavy: QVQLVQSGAEVKKPGASVKVSCKTSRYTFTEYTIHWVRQAPGQRLEWIGGINPNNGIPNYNQKFKGRVTITVDTSASTAYMELSSLRSEDTAVYYCARRRIAYGYDEGHAMDYWGQGTLVTVSSASTKGPSVFPLAPSSKSTSGGTAALGCLVKDYFPEPVTVSWNSGALTSGVHTFPAVLQSSGLYSLSSVVTVPSSSLGTQTYICNVNHKPSNTKVDKKVEPKSCDKTHTCPPCPAPELLGGPSVFLFPPKPKDTLMISRTPEVTCVVVAVSHEDPEVKFNWYVDGVEVHNAKTKPREEQYGSTYRVVSVLTVLHQDWLNGKEYKCKVSNKALPAPIEKTISKAKGQPREPQVYTLPPSRDELTKNQVSLWCLVKGFYPSDIAVEWESNGQPENNYKTTPPVLDSDGSFFLYSKLTVDKSRWQQGNVFSCSVMHEALHNHYTQKSLSLSPGK
light: not shown
chain: not shown
notes: Knob-into-hole; LIGHT-LTb2 heterotrimer with GGSG linker after LIGHT
percent of cells in the positive gate [1]: 99.8% | percent of cells bound (human LTβR on A375 cells [2]): ≥ 96% | binding result [3]: no binding (tested: 100 nM) | percent of cells bound [4]: ≥ 99% | IL-8 secretion of A375 cells, EC50 (FIG. 15b) (human LTβR on A375 cells [5]): 0.0778 nM | Kd [6]: 0.245 nM | koff [6]: 0.000315 s⁻¹ | kon [6]: 1.29e+06 M⁻¹ s⁻¹ | Kd (human DcR3): 7.93 nM | koff (human DcR3): 0.0017 s⁻¹ | kon (human DcR3): 214000 M⁻¹ s⁻¹
